Laboratory results taken from patent publication US20150344570A1 (published 2015).

T1: human FcγRIIb extracellular domain with C-terminal His tag (human, UniProt P31994 43-217)
T1 construct: extracellular domain; also called FcgRIIb; 2b; not shown: His tag attached to the C terminus
T1 sequence (looked up): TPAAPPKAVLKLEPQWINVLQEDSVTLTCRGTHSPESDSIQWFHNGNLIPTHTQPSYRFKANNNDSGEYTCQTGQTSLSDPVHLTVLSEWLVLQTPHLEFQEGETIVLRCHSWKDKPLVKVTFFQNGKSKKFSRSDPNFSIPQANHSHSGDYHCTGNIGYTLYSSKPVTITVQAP


Biological target: T1, human FcγRIIb extracellular domain with …
Assay: SPR (Biacore T100), antibody captured on antigen peptide chip, FcγRIIb as analyte; relative binding

He/Con_2b | Binder
310 % of control GpH7-A5/GpH7-B3/GpL16-k0 (=100) | GpH7-A5/GpH7-B3 variant S267_09D/GpL16-k0 (He Ab) (antibody, human IgG1, kappa, Anti-glypican-3 IgG1; mutation only in the GpH7-B3-derived H chain; also called S267D heterodimerized antibody) heavy 1: not shown heavy 2: not shown light: DIVMTQSPLSLPVTPGEPASISCQASESLVHSNRNTYLHWYLQKPGQSPQLLIYKVSNRFSGVPDRFSGSGSGTDFTLKISRVEAEDVGVYYCSQNTHVPPTFGQGTKVEIERTVAAPSVFIFPPSDEQLKSGTASVVCLLNNFYPREAKVQWKVDNALQSGNSQESVTEQDSKDSTYSLSSTLTLSKADYEKHKVYACEVTHQGLSSPVTKSFNRGEC
206 % of control GpH7-A5/GpH7-B3/GpL16-k0 (=100) | GpH7-A5/GpH7-B3 variant S239_09D/GpL16-k0 (He Ab) (antibody, human IgG1, kappa, Anti-glypican-3 IgG1; mutation only in the GpH7-B3-derived H chain; also called S239D heterodimerized antibody) heavy 1: not shown heavy 2: not shown light: DIVMTQSPLSLPVTPGEPASISCQASESLVHSNRNTYLHWYLQKPGQSPQLLIYKVSNRFSGVPDRFSGSGSGTDFTLKISRVEAEDVGVYYCSQNTHVPPTFGQGTKVEIERTVAAPSVFIFPPSDEQLKSGTASVVCLLNNFYPREAKVQWKVDNALQSGNSQESVTEQDSKDSTYSLSSTLTLSKADYEKHKVYACEVTHQGLSSPVTKSFNRGEC
109 % of control GpH7-A5/GpH7-B3/GpL16-k0 (=100) | GpH7-A5/GpH7-B3 variant S267_08L/GpL16-k0 (He Ab) (antibody, human IgG1, kappa, Anti-glypican-3 IgG1; mutation only in the GpH7-B3-derived H chain; also called S267L heterodimerized antibody) heavy 1: not shown heavy 2: not shown light: DIVMTQSPLSLPVTPGEPASISCQASESLVHSNRNTYLHWYLQKPGQSPQLLIYKVSNRFSGVPDRFSGSGSGTDFTLKISRVEAEDVGVYYCSQNTHVPPTFGQGTKVEIERTVAAPSVFIFPPSDEQLKSGTASVVCLLNNFYPREAKVQWKVDNALQSGNSQESVTEQDSKDSTYSLSSTLTLSKADYEKHKVYACEVTHQGLSSPVTKSFNRGEC
108 % of control GpH7-A5/GpH7-B3/GpL16-k0 (=100) | GpH7-A5/GpH7-B3 variant Y300_19Q/GpL16-k0 (He Ab) (antibody, human IgG1, kappa, Anti-glypican-3 IgG1; mutation only in the GpH7-B3-derived H chain; also called Y300Q heterodimerized antibody) heavy 1: not shown heavy 2: not shown light: DIVMTQSPLSLPVTPGEPASISCQASESLVHSNRNTYLHWYLQKPGQSPQLLIYKVSNRFSGVPDRFSGSGSGTDFTLKISRVEAEDVGVYYCSQNTHVPPTFGQGTKVEIERTVAAPSVFIFPPSDEQLKSGTASVVCLLNNFYPREAKVQWKVDNALQSGNSQESVTEQDSKDSTYSLSSTLTLSKADYEKHKVYACEVTHQGLSSPVTKSFNRGEC
243 % of control GpH7-A5/GpH7-B3/GpL16-k0 (=100) | GpH7-A5/GpH7-B3 variant S267_02A/GpL16-k0 (He Ab) (antibody, human IgG1, kappa, Anti-glypican-3 IgG1; mutation only in the GpH7-B3-derived H chain; also called S267A heterodimerized antibody) heavy 1: not shown heavy 2: not shown light: DIVMTQSPLSLPVTPGEPASISCQASESLVHSNRNTYLHWYLQKPGQSPQLLIYKVSNRFSGVPDRFSGSGSGTDFTLKISRVEAEDVGVYYCSQNTHVPPTFGQGTKVEIERTVAAPSVFIFPPSDEQLKSGTASVVCLLNNFYPREAKVQWKVDNALQSGNSQESVTEQDSKDSTYSLSSTLTLSKADYEKHKVYACEVTHQGLSSPVTKSFNRGEC
144 % of control GpH7-A5/GpH7-B3/GpL16-k0 (=100) | GpH7-A5/GpH7-B3 variant S239_01G/GpL16-k0 (He Ab) (antibody, human IgG1, kappa, Anti-glypican-3 IgG1; mutation only in the GpH7-B3-derived H chain; also called S239G heterodimerized antibody) heavy 1: not shown heavy 2: not shown light: DIVMTQSPLSLPVTPGEPASISCQASESLVHSNRNTYLHWYLQKPGQSPQLLIYKVSNRFSGVPDRFSGSGSGTDFTLKISRVEAEDVGVYYCSQNTHVPPTFGQGTKVEIERTVAAPSVFIFPPSDEQLKSGTASVVCLLNNFYPREAKVQWKVDNALQSGNSQESVTEQDSKDSTYSLSSTLTLSKADYEKHKVYACEVTHQGLSSPVTKSFNRGEC
105 % of control GpH7-A5/GpH7-B3/GpL16-k0 (=100) | GpH7-A5/GpH7-B3 variant S337_14T/GpL16-k0 (He Ab) (antibody, human IgG1, kappa, Anti-glypican-3 IgG1; mutation only in the GpH7-B3-derived H chain; also called S337T heterodimerized antibody) heavy 1: not shown heavy 2: not shown light: DIVMTQSPLSLPVTPGEPASISCQASESLVHSNRNTYLHWYLQKPGQSPQLLIYKVSNRFSGVPDRFSGSGSGTDFTLKISRVEAEDVGVYYCSQNTHVPPTFGQGTKVEIERTVAAPSVFIFPPSDEQLKSGTASVVCLLNNFYPREAKVQWKVDNALQSGNSQESVTEQDSKDSTYSLSSTLTLSKADYEKHKVYACEVTHQGLSSPVTKSFNRGEC
119 % of control GpH7-A5/GpH7-B3/GpL16-k0 (=100) | GpH7-A5/GpH7-B3 variant S239_18N/GpL16-k0 (He Ab) (antibody, human IgG1, kappa, Anti-glypican-3 IgG1; mutation only in the GpH7-B3-derived H chain; also called S239N heterodimerized antibody) heavy 1: not shown heavy 2: not shown light: DIVMTQSPLSLPVTPGEPASISCQASESLVHSNRNTYLHWYLQKPGQSPQLLIYKVSNRFSGVPDRFSGSGSGTDFTLKISRVEAEDVGVYYCSQNTHVPPTFGQGTKVEIERTVAAPSVFIFPPSDEQLKSGTASVVCLLNNFYPREAKVQWKVDNALQSGNSQESVTEQDSKDSTYSLSSTLTLSKADYEKHKVYACEVTHQGLSSPVTKSFNRGEC
114 % of control GpH7-A5/GpH7-B3/GpL16-k0 (=100) | GpH7-A5/GpH7-B3 variant S337_09D/GpL16-k0 (He Ab) (antibody, human IgG1, kappa, Anti-glypican-3 IgG1; mutation only in the GpH7-B3-derived H chain; also called S337D heterodimerized antibody) heavy 1: not shown heavy 2: not shown light: DIVMTQSPLSLPVTPGEPASISCQASESLVHSNRNTYLHWYLQKPGQSPQLLIYKVSNRFSGVPDRFSGSGSGTDFTLKISRVEAEDVGVYYCSQNTHVPPTFGQGTKVEIERTVAAPSVFIFPPSDEQLKSGTASVVCLLNNFYPREAKVQWKVDNALQSGNSQESVTEQDSKDSTYSLSSTLTLSKADYEKHKVYACEVTHQGLSSPVTKSFNRGEC
140 % of control GpH7-A5/GpH7-B3/GpL16-k0 (=100) | GpH7-A5/GpH7-B3 variant S239_08L/GpL16-k0 (He Ab) (antibody, human IgG1, kappa, Anti-glypican-3 IgG1; mutation only in the GpH7-B3-derived H chain; also called S239L heterodimerized antibody) heavy 1: not shown heavy 2: not shown light: DIVMTQSPLSLPVTPGEPASISCQASESLVHSNRNTYLHWYLQKPGQSPQLLIYKVSNRFSGVPDRFSGSGSGTDFTLKISRVEAEDVGVYYCSQNTHVPPTFGQGTKVEIERTVAAPSVFIFPPSDEQLKSGTASVVCLLNNFYPREAKVQWKVDNALQSGNSQESVTEQDSKDSTYSLSSTLTLSKADYEKHKVYACEVTHQGLSSPVTKSFNRGEC
192 % of control GpH7-A5/GpH7-B3/GpL16-k0 (=100) | GpH7-A5/GpH7-B3 variant S267_03V/GpL16-k0 (He Ab) (antibody, human IgG1, kappa, Anti-glypican-3 IgG1; mutation only in the GpH7-B3-derived H chain; also called S267V heterodimerized antibody) heavy 1: not shown heavy 2: not shown light: DIVMTQSPLSLPVTPGEPASISCQASESLVHSNRNTYLHWYLQKPGQSPQLLIYKVSNRFSGVPDRFSGSGSGTDFTLKISRVEAEDVGVYYCSQNTHVPPTFGQGTKVEIERTVAAPSVFIFPPSDEQLKSGTASVVCLLNNFYPREAKVQWKVDNALQSGNSQESVTEQDSKDSTYSLSSTLTLSKADYEKHKVYACEVTHQGLSSPVTKSFNRGEC
